Target: T1, biotinylated SARS-CoV-2 Spike protein (WA-2, 2 P) (SARS-CoV-2 WA-2 (entry: reference …, UniProt P0DTC2, stabilised, biotinylated))
T1 construct: source: bought: R&D systems
Test: SPR
Settings: both partners purified

Binder | Kd [nM]
S2P6 FAB fragment (Fab, V domains shown) VH: EVQLVQSGAEVKKPGASVKVSCKASGYTFTSQYMHWVRQAPGQGLEWIGIINPSGVHTSYAQKFQGRVTLTRDTSTSTLYMELSSLRSEDTAVYYCARGSPKGAFDYWGQGTLVTVSS VL: not shown | 0.4
DH1057.1 FAB fragment (Fab, V domains shown) VH: EVQLVESGTEVKKPGASVKVSCKTSGYIFTNYYIHWVRQAPGQGLEWMGIFNPNGGGTSYAQKFQGRITLTGNTSANTGYMVLRSLTSEDTAVYYCARDPRTSGDNDGFDMWGQGTKVTVSS VL: VLTQSPATLSLSPGERATLSCRASQSLSSYNYLAWYQQKPGQAPRLLIYAASKRATGIPARFSGSGSGTDFTLTISSLEPEDFAVYFCQQRSNRPPAWTFGQGTKVEIK | 11.5
